These results are taken from the RNAGym collection of RNA variant scans (doi:10.1073/pnas.2313332121).

The labels stand for the following.
B1: TPR 5TU (parent)
chain: GGAUCUUCUCGAUCUAACAAAAAAGACAAAUCUGCCACAAAGCUUGAGAGCAUCUUCGGAUGCAGAGGCGGCAGCCUUCGGUGGCGCGAUAGCGCCAACGUUCUCAACUAUGACACGCAAAACGCGUGCUCCGUUGAAUGGAGUUUAUCAUG

Variants at the floor of the assay were thinned out. Bounds are passed on as bounds.

The variants in the data set derive from B1. Nature of the data set: polymerase ribozyme fitness, log enrichment relative to wild type (log ratio); higher = more active; in vitro selection for triplet polymerase activity. In short, it runs like this: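 In triplicate, a single round of in vitro selection was run on each mutant library, PCR-built and transcribed, covering one subunit of a heterodimeric triplet polymerase ribozyme. Frozen incubation at −7 °C followed annealing with a biotinylated primer, partner subunit and triplets, and extended constructs were then gel-excised, streptavidin-captured and taken through RT-PCR. Fitness is the logarithm of genotype enrichment over wild-type enrichment, from inverse-variance-weighted replicate averages of Illumina-sequenced inputs and outputs. […] only genotypes with ≥10 input reads and ≥1 read per output were kept.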
A20G A41U C51A U56A C76U G86U G88U A91U C123A U144A C149A: the “polymerase ribozyme fitness (log ratio)” value was not above -4.2.

For A21C C43A, the “polymerase ribozyme fitness (log ratio)” value is not above -4.2. On to A21C A22U A89U G92C G94U G141A, for which the “polymerase ribozyme fitness (log ratio)” value is not above -4.2. In the case of A20G A21U A23U C87A A91C C95A C118G G133U U135A, the “polymerase ribozyme fitness (log ratio)” value is not above -4.2. Turning to A20U A29G G46C G50C A66U G83A, the “polymerase ribozyme fitness (log ratio)” value is not above -4.2. As to A19U G94C, the “polymerase ribozyme fitness (log ratio)” value was -0.449.

A19G G58C G59C: the “polymerase ribozyme fitness (log ratio)” value came to 0.18. For A19C C43U C76A G81C A91G A106U A121C G136U A142G, the “polymerase ribozyme fitness (log ratio)” value is not above -4.2. Turning to A20U A47U G70C G80C C85G C93A C108U A122G U144G, the “polymerase ribozyme fitness (log ratio)” value was not above -4.2. Take A20C A37C A40C G58C C95U: the “polymerase ribozyme fitness (log ratio)” value is -4.12.

As to A19U C57A A60C C93A, the “polymerase ribozyme fitness (log ratio)” value was not above -4.2. For A20G U104C G117U, the “polymerase ribozyme fitness (log ratio)” value was -0.102. Consider A19U G46A G58C A97U U134A, for which the “polymerase ribozyme fitness (log ratio)” value was not above -4.2. For A21C C57G, the “polymerase ribozyme fitness (log ratio)” value is -0.649.

Turning to A19U C57G C96G C116G, the “polymerase ribozyme fitness (log ratio)” value is -0.687. On to A20G A22C G25C C57A G92A C99U C108A, for which the “polymerase ribozyme fitness (log ratio)” value was not above -4.2. With A20G C27G G42C G58C G68A A121C C125U G140A, the “polymerase ribozyme fitness (log ratio)” value was not above -4.2. As for A19U C96G A142C, the “polymerase ribozyme fitness (log ratio)” value was -2.72. For the variant A20U A49C G50C G92U U146G C149U, the “polymerase ribozyme fitness (log ratio)” value is not above -4.2. Regarding A19C G126U U145A, the “polymerase ribozyme fitness (log ratio)” value is -0.56. As for A21C G50A A122U, the “polymerase ribozyme fitness (log ratio)” value was -1.39. As to A19G G83C C87U U101G, the “polymerase ribozyme fitness (log ratio)” value was not above -4.2.

Consider A20G A21U G59C C69A A98G U109A, for which the “polymerase ribozyme fitness (log ratio)” value was not above -4.2. In the case of A19G A41C G59A G62A A73U C118G A150U, the “polymerase ribozyme fitness (log ratio)” value was not above -4.2. A19U G46A C51U A91G G124U U139A: the “polymerase ribozyme fitness (log ratio)” value is not above -4.2.

A20G G46A U55G G70A C76U G84A C96U C103G C114U G152U: the “polymerase ribozyme fitness (log ratio)” value is not above -4.2. On to A21C C43A G50C G74C C76A C87A A91G A119G, for which the “polymerase ribozyme fitness (log ratio)” value is not above -4.2. In the case of A21C A23G C85G G141C, the “polymerase ribozyme fitness (log ratio)” value was -3.89. On to A20G C93U, for which the “polymerase ribozyme fitness (log ratio)” value is -2.59. With A19C U56A A91U A147C the figure was not above -4.2; with A20U G59A G88A C95G U151A, not above -4.2. For the variant A21C C93A, the “polymerase ribozyme fitness (log ratio)” value was -2.02. A19U G143U: the “polymerase ribozyme fitness (log ratio)” value is -2.25. Take A19U U44A U53A A73U C85U G136A: the “polymerase ribozyme fitness (log ratio)” value was not above -4.2. With A20C A28C A37U G42U G71A C85U C99G A106G C131G, the “polymerase ribozyme fitness (log ratio)” value was not above -4.2. Consider A20U U55A, for which the “polymerase ribozyme fitness (log ratio)” value is -2.07.

Regarding A20U A40C G94A A115U A119C, the “polymerase ribozyme fitness (log ratio)” value is -3.89. Take A20C G50U G83U: the “polymerase ribozyme fitness (log ratio)” value is -0.904. In the case of A20G A21C G92A C108G, the “polymerase ribozyme fitness (log ratio)” value is not above -4.2. A19U A30U U55G G59A G86U A150U: the “polymerase ribozyme fitness (log ratio)” value is not above -4.2. As for A20C A113U U127A, the figure is not above -4.2. Consider A19U A30C G42A C43G C54G G70U U77C C96G A107G, for which the “polymerase ribozyme fitness (log ratio)” value was not above -4.2. With A20U C85G, the “polymerase ribozyme fitness (log ratio)” value was -3.35. As to A21C A29U C43A U55A G83A A107C, the “polymerase ribozyme fitness (log ratio)” value is not above -4.2. As for A20C A23U A28U G65U A73U G86U, the figure is not above -4.2; as for A19G A41C, -1.52.

A19G A52U U53A U82C C87G: the “polymerase ribozyme fitness (log ratio)” value is not above -4.2. A19U U53A C85A: the “polymerase ribozyme fitness (log ratio)” value was -3.78. Consider A19G C123G, for which the “polymerase ribozyme fitness (log ratio)” value was -1.22. As to A20C C103G, the “polymerase ribozyme fitness (log ratio)” value is -1.28.

Consider A20C C87G G94C C99A A107U C108G, for which the “polymerase ribozyme fitness (log ratio)” value is not above -4.2. A20C A52C C79G: the “polymerase ribozyme fitness (log ratio)” value is not above -4.2. Regarding A21C C87U, the “polymerase ribozyme fitness (log ratio)” value came to 0.0419. With A19U U33A G34A C79A C118U C125A C132U G133A A142C U148G the figure was not above -4.2. Regarding A19C U61C G141C U144C C149A, the “polymerase ribozyme fitness (log ratio)” value was not above -4.2. Regarding A20G C85G, the “polymerase ribozyme fitness (log ratio)” value was -2.92. As to A20G C85A, the “polymerase ribozyme fitness (log ratio)” value is -2.13. As for A21C C51U A106G, the “polymerase ribozyme fitness (log ratio)” value is -0.144. Take A20U A22U A52C G67A U127A: the “polymerase ribozyme fitness (log ratio)” value is not above -4.2. Take A20U A21G A30G C99A: the “polymerase ribozyme fitness (log ratio)” value was -4.05. Take A19G U55A C85A: the “polymerase ribozyme fitness (log ratio)” value was -2.52. On to A19C C125U, for which the “polymerase ribozyme fitness (log ratio)” value stood at 0.16.

On to A20U G50C G58U C79G G84U U90G A107G C108G, for which the “polymerase ribozyme fitness (log ratio)” value is not above -4.2. As for A21C C38U G46C U53G G88U A122U G126A U135C C149G, the “polymerase ribozyme fitness (log ratio)” value is not above -4.2. For the variant A20C A28U A49C U61A G92A A113G C149G, the “polymerase ribozyme fitness (log ratio)” value was not above -4.2.

Take A19U C38U G50A C79A: the “polymerase ribozyme fitness (log ratio)” value is not above -4.2. For A19G G84A, the “polymerase ribozyme fitness (log ratio)” value was -1.52. In the case of A19G G84U, the “polymerase ribozyme fitness (log ratio)” value was -2.39. As for A20U A30G C38U G59C A60C A73U G92U, the “polymerase ribozyme fitness (log ratio)” value was not above -4.2.

Turning to A19U C114G, the “polymerase ribozyme fitness (log ratio)” value was -3.52. Take A20U G70C C93G: the “polymerase ribozyme fitness (log ratio)” value is not above -4.2. With A19G A24G C43A G59A the figure was not above -4.2; with A20G A40C A49C G50A G65C G68A C87U G124U, not above -4.2; with A20G G117A, -0.0564.

On to A20U C54A U56A G84C G86C C96U G117C A122U U144A A150G, for which the “polymerase ribozyme fitness (log ratio)” value is not above -4.2. As to A21C G25C A52C A89U C118A A119C, the “polymerase ribozyme fitness (log ratio)” value was -3.52. For the variant A21C, the “polymerase ribozyme fitness (log ratio)” value is 0.199.

For A19U G68C C93G C131G, the “polymerase ribozyme fitness (log ratio)” value was not above -4.2. In the case of A20C A22C A39G G71A C85A G94C, the “polymerase ribozyme fitness (log ratio)” value is not above -4.2. As for A19U C35G C57U U90C C96A C132U, the figure is not above -4.2. As to A20G G46A U146A, the “polymerase ribozyme fitness (log ratio)” value is -1.3. On to A20G U56A, for which the “polymerase ribozyme fitness (log ratio)” value was -0.723. Regarding A21C G84U U90C C116A A137C A138G, the “polymerase ribozyme fitness (log ratio)” value was not above -4.2. Take A19C G80A C85G: the “polymerase ribozyme fitness (log ratio)” value was -0.89.
